In this assay the target is Spike-RBD RBD (Severe acute respiratory syndrome …, UniProt P0DTC2). Put plainly: ELISA. On the technique in general: An ELISA detects its analyte on a solid surface through an enzyme-linked reagent.

One may read the Kd as the free concentration of one partner at which half of the binding sites on the other are occupied at equilibrium, for simple one-to-one binding. A higher Kd goes with a looser complex.

B1: Platelet Factor 4 (protein)
chain: SQVRPRHITSLEVIKAGPHCPTAQLIATLKNGRKICLDLQAPLYKKIIKKLLES
Take B1: the Kd is approximately 180 nM.

The values are drawn from PMC8395316 (2021).
